From publication PMC2756588

T1: Lsb1, P53281
T1 sequence (P53281 45-122, looked up): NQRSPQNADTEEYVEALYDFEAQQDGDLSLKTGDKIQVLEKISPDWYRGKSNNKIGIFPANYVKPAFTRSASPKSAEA

T2: Pex13, P80667
T2 sequence (P80667 295-386, looked up): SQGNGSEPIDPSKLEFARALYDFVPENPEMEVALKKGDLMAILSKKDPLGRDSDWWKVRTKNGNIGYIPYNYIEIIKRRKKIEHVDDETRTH

T3: Bbc1, P47068
T3 sequence (P47068 1-78, looked up): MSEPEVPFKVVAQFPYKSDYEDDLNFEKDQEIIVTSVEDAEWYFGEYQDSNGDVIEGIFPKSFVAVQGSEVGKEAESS

T4: Nbp2, Q12163
T4 sequence (Q12163 103-180, looked up): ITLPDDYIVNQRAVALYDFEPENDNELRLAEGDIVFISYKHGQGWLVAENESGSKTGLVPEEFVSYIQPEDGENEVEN

T5: Boi2, P39969
T5 sequence (P39969 32-116, looked up): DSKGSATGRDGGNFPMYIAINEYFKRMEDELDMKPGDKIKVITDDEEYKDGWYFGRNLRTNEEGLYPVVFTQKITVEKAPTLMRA

T6: Sla1-3, P32790
T6 sequence (P32790 344-424, looked up): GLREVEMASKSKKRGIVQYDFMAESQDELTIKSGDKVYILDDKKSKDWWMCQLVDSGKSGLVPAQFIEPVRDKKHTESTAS

T7: Hof1, Q05080
T7 sequence (Q05080 590-669, looked up): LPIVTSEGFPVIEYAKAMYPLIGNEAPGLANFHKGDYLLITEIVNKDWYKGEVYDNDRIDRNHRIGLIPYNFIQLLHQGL

T8: Boi1, P38041
T8 sequence (P38041 1-86, looked up): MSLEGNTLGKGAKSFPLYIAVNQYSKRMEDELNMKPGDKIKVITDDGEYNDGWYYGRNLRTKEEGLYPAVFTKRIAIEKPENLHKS

T9: Cdc25, P04821
T9 sequence (P04821 50-136, looked up): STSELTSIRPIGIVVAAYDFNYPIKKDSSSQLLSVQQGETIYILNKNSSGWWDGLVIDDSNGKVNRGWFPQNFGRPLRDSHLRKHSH

T10: Sla1-2, P32790
T10 sequence (P32790 60-140, looked up): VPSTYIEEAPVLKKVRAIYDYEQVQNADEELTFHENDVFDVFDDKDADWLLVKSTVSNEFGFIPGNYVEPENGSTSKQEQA

T11: Bzz1-1, P38822
T11 sequence (P38822 478-572, looked up): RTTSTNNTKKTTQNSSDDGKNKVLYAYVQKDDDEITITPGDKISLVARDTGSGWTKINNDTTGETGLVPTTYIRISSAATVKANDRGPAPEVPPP

T12: Lsb4, P32793
T12 sequence (P32793 402-468, looked up): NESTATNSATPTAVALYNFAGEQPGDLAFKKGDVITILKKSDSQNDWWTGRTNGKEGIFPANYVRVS

T13: Fus1, P11710
T13 sequence (P11710 432-512, looked up): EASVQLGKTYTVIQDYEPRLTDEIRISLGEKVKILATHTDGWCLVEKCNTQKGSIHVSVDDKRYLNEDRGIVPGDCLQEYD

T14: Abp1, P15891
T14 sequence (P15891 535-592, looked up): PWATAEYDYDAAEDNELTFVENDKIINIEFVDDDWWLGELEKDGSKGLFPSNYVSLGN

T15: Pin3, Q06449
T15 sequence (Q06449 53-122, looked up): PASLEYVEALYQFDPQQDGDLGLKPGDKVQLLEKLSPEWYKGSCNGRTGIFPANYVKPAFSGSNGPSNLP

T16: Bud14, P27637
T16 sequence (P27637 247-328, looked up): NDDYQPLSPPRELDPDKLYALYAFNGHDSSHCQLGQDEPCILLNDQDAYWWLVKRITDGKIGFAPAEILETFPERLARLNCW

T17: Cyk3, Q07533
T17 sequence (Q07533 1-83, looked up): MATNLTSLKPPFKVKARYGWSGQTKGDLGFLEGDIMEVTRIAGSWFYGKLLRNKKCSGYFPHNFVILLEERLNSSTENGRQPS

T18: Bzz1-2, P38822
T18 sequence (P38822 568-633, looked up): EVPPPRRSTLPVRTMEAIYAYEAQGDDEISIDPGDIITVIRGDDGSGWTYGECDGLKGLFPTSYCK

T19: Hse1, P38753
T19 sequence (P38753 208-285, looked up): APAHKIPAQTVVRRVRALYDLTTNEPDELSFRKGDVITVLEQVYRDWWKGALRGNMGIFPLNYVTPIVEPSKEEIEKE

T20: Lsb3, P43603
T20 sequence (P43603 385-451, looked up): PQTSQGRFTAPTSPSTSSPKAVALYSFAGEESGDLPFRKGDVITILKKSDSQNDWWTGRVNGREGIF

T21: Myo5, Q04439
T21 sequence (Q04439 1072-1160, looked up): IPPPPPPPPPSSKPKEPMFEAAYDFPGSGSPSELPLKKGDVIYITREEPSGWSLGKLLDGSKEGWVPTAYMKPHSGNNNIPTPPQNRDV

B1: unnamed (peptide)
chain: GATNNAPTLPKRKNP
B2: unnamed (peptide)
chain: KKAPPPVVKPKPRNF
B3: unnamed (peptide)
chain: SSSSSPPPLPTRRDH
B4: unnamed (peptide)
chain: PALPSLPPPPLLNVD

Key:
Assay in all cases: SPOT array
Lsb1, P53281 = biological target: T1, Lsb1, P53281; conditions: median of control spots 388
GST = conditions: median of control spots 978
Pex13, P80667 = biological target: T2, Pex13, P80667; conditions: median of control spots 1341
Bbc1, P47068 = biological target: T3, Bbc1, P47068; conditions: median of control spots 796
Nbp2, Q12163 = biological target: T4, Nbp2, Q12163; conditions: median of control spots 357
Rvs167, P39743 = conditions: median of control spots 2707
Chain of Rvs167, P39743 (P39743 419-482): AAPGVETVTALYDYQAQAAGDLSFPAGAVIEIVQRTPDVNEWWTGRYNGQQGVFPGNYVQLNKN

Boi2, P39969 = biological target: T5, Boi2, P39969; conditions: median of control spots 1161
Bem1-2, P29366 = conditions: median of control spots 4347
Chain of Bem1-2, P29366 (P29366 139-227): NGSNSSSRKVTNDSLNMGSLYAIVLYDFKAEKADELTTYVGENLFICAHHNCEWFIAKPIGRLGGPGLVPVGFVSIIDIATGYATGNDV

Sla1-3, P32790 = biological target: T6, Sla1-3, P32790; conditions: median of control spots 5475
Hof1, Q05080 = biological target: T7, Hof1, Q05080; conditions: median of control spots 4086
Boi1, P38041 = biological target: T8, Boi1, P38041; conditions: median of control spots 1162
Cdc25, P04821 = biological target: T9, Cdc25, P04821; conditions: median of control spots 969
Sla1-2, P32790 = biological target: T10, Sla1-2, P32790; conditions: median of control spots 712
Sho1, P40073 = conditions: median of control spots 1148
Chain of Sho1, P40073 (P40073 287-367): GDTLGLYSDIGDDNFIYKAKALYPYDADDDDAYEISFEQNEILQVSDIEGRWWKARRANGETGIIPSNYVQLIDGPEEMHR

Bem1-1, P29366 = conditions: median of control spots 4282
Chain of Bem1-1, P29366 (P29366 55-141): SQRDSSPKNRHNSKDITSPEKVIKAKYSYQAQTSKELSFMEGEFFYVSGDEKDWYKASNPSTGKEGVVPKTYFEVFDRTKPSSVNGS

Myo3, P36006 = conditions: median of control spots 468
Bzz1-1, P38822 = biological target: T11, Bzz1-1, P38822; conditions: median of control spots 4446
Lsb4, P32793 = biological target: T12, Lsb4, P32793; conditions: median of control spots 397
Fus1, P11710 = biological target: T13, Fus1, P11710; conditions: median of control spots 1200
Abp1, P15891 = biological target: T14, Abp1, P15891; conditions: median of control spots 935
Pin3, Q06449 = biological target: T15, Pin3, Q06449; conditions: median of control spots 2171
Bud14, P27637 = biological target: T16, Bud14, P27637; conditions: median of control spots 956
Cyk3, Q07533 = biological target: T17, Cyk3, Q07533; conditions: median of control spots 1451
Bzz1-2, P38822 = biological target: T18, Bzz1-2, P38822; conditions: median of control spots 4538
Hse1, P38753 = biological target: T19, Hse1, P38753; conditions: median of control spots 1727
Lsb3, P43603 = biological target: T20, Lsb3, P43603; conditions: median of control spots 406
Myo5, Q04439 = biological target: T21, Myo5, Q04439; conditions: median of control spots 471

Row | Binder | SPOT intensity (Lsb1, P53281) | SPOT intensity (GST) | SPOT intensity (Pex13, P80667) | SPOT intensity (Bbc1, P47068) | SPOT intensity (Nbp2, Q12163) | SPOT intensity (Rvs167, P39743) | SPOT intensity (Boi2, P39969) | SPOT intensity (Bem1-2, P29366) | SPOT intensity (Sla1-3, P32790) | SPOT intensity (Hof1, Q05080) | SPOT intensity (Boi1, P38041) | SPOT intensity (Cdc25, P04821) | SPOT intensity (Sla1-2, P32790) | SPOT intensity (Sho1, P40073) | SPOT intensity (Bem1-1, P29366) | SPOT intensity (Myo3, P36006) | SPOT intensity (Bzz1-1, P38822) | SPOT intensity (Lsb4, P32793) | SPOT intensity (Fus1, P11710) | SPOT intensity (Abp1, P15891) | further results
1 | B1 | 64 | 0 | 27 | 6 | 0 | 2550 | 58 | 9 | 1 | 0 | 12 | 1 | 92 | 2 | 0 | 0 | 0 | 570 | 2 | 36 | SPOT intensity (Pin3, Q06449): 0; SPOT intensity (Bud14, P27637): 0; SPOT intensity (Cyk3, Q07533): 0; SPOT intensity (Bzz1-2, P38822): 0; SPOT intensity (Hse1, P38753): 1; SPOT intensity (Lsb3, P43603): 425; SPOT intensity (Myo5, Q04439): 0
2 | B2 | 4 | 3 | 4 | 2 | 0 | 1 | 3 | 0 | 0 | 10 | 0 | 15 | 2 | 21 | 0 | 0 | 10 | 0 | 1 | 899 | SPOT intensity (Pin3, Q06449): 1; SPOT intensity (Bud14, P27637): 3; SPOT intensity (Cyk3, Q07533): 5; SPOT intensity (Bzz1-2, P38822): 360; SPOT intensity (Hse1, P38753): 0; SPOT intensity (Lsb3, P43603): 0; SPOT intensity (Myo5, Q04439): 0
3 | B3 | 463 | 1 | 467 | 3 | 0 | 3540 | 4 | 13 | 7 | 16 | 4 | 15 | 0 | 0 | 8 | 69 | 6 | 748 | 1 | 0 | SPOT intensity (Pin3, Q06449): 0; SPOT intensity (Bud14, P27637): 0; SPOT intensity (Cyk3, Q07533): 1; SPOT intensity (Bzz1-2, P38822): 3; SPOT intensity (Hse1, P38753): 4; SPOT intensity (Lsb3, P43603): 485; SPOT intensity (Myo5, Q04439): 19
4 | B4 | 0 | 0 | 2 | 0 | 0 | 0 | 0 | 0 | 0 | 6720 | 0 | 0 | 0 | 83 | 0 | 598 | 2 | 0 | 0 | 0 | SPOT intensity (Pin3, Q06449): 0; SPOT intensity (Bud14, P27637): 1; SPOT intensity (Cyk3, Q07533): 0; SPOT intensity (Bzz1-2, P38822): 0; SPOT intensity (Hse1, P38753): 0; SPOT intensity (Lsb3, P43603): 0; SPOT intensity (Myo5, Q04439): 688
